± gives the half width of the 95% confidence interval.

The nature of one data set: folding stability dG unfold from chymotrypsin proteolysis; higher = more stable. As to the method: (§1)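 Folding stability of de novo designed mini-proteins (<80 aa, no Cys; designed by TrROS, TrMRF, ProteinMPNN and the joint model) was measured by cDNA display proteolysis with trypsin and chymotrypsin. Each protease was used at 11 concentrations in a threefold dilution series plus a no-protease condition. K50 was inferred by Bayesian fitting of sequencing counts, and dG unfold was derived against a sequence-predicted unfolded-state K50 (Tsuboyama et al. method). Sequences shown include variable-length N-terminal GS-type padding (SAGGSAGG...) inside a display construct carrying a PA tag. Rows were kept only if the AF2 dimer inter-PAE was >15, to exclude likely homo-oligomers.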
For the sequence “AARSVDVEVEELSTVTPAGGRTRLLRVRAYVPETGRTAEVPYRAVLLPDGSERPFGTAEELADRIARLLVSS [r1_77_TrMRF]”, the “folding stability dG unfold” value was found to be 0.182 ± 0.17 kcal/mol.
As for “PPVGPDAPVTPTTTPTPSGKTVTTTDRPLRREVTTTDPSTGTYTVTLTETDAAGRVLATRTETLSPEEVAAS [r1_380_JUSTAS]”, the “folding stability dG unfold” value was -0.0788 ± 0.36 kcal/mol.
Take “SAGDIEIEVEELGEGYKKITIRIKVDSIEEAIKEVEEIVRDFFSEEAEIVEIKIDPEKGIVEAVVIVPESAG [r5_810_TrMRF]”: the “folding stability dG unfold” value came out at 3.39 ± 0.4 kcal/mol.
“SAGGSAGGSAGGKTITLDELRENFPPGYQIRDNNGKQHRINANEPIEEGDPIEIVSKDDISAGGSAGGSAGG [r7_507_TrROS]”: the “folding stability dG unfold” value was -0.206 ± 0.17 kcal/mol.
On to “SAGGSAGGSAGGPVIPKDVKVKVIFSNGEVAELEVDSVDDLQKKLNVPIPPNVNLVVSRGSAGGSAGGSAGG [r7_223_TrMRF]”, for which the “folding stability dG unfold” value is -0.759 ± 0.37 kcal/mol.
“SAGGSAGGSAGGSMVITIEYTGSVEDLIKKLKEEGLDVKVLEVKFDPKTGKYTVTLEVKSAGGSAGGSAGGS [r4_315_JUSTAS]”: the “folding stability dG unfold” value was determined as 4.22 ± 0.2 kcal/mol.
As for “SLEELAKAIAEKLGLPVEDVEVRVEKEVDEETGEERLRVTVLIKVDGKTYLIEIDLETGEIVEIKPLEDLSA [r9_1219_TrROS_Hall]”, the “folding stability dG unfold” value turned out to be 4.68 ± 0.23 kcal/mol.

The nature of the next data set: folding stability dG unfold (combined trypsin and chymotrypsin); higher = more stable. As to the method:
as §1
Regarding “AARSVDVEVEELSTVTPAGGRTRLLRVRAYVPETGRTAEVPYRAVLLPDGSERPFGTAEELADRIARLLVSS [r1_77_TrMRF]”, the “folding stability dG unfold” value is -0.0373 ± 0.12 kcal/mol.
Turning to “PPVGPDAPVTPTTTPTPSGKTVTTTDRPLRREVTTTDPSTGTYTVTLTETDAAGRVLATRTETLSPEEVAAS [r1_380_JUSTAS]”, the “folding stability dG unfold” value is -0.541 ± 0.31 kcal/mol.
On the same count and under the same terms, for “SAGGTVREIKEILKEKGWPVKNVEPGPNGNYTVQLRRPRGKPFKINIPSDNPEEQQALREAIPPDFVSAGGS [r16_821_TrROS]” the value was below -1 kcal/mol; for “SAGIKEIAKKLGMPPNNIKIKNIQPQPRRKPDPEDGKPEPEPYPTVSVEIEAPGNGKKREASIPADEIQSAG [r5_517_TrROS]”, below -1 kcal/mol.
“SAGIKPGDPLIIKFNFPPEARDKIKKLLEDPGFTYENDPDKGSVSIVFPAADVDRLQDLPGISEIVPVSAGG [r19_212_TrROS]”: the “folding stability dG unfold” value is below -1 kcal/mol.
Take “SAGIVIPFEELKEFMSDEEIEDIAREFAQDNGYPPKKIEIEPHPNPGDWITIKAEPDNGNKAPIVFRLPSAG [r5_745_TrROS]”: the “folding stability dG unfold” value is below -1 kcal/mol.
With “SAGKERTWRIYVPKNMPPGRPFEGELELNPNGERDVRISWPGGKTRKIKSPDDIKELAKSGYPIMIEPVSAG [r5_42_TrROS]”, the “folding stability dG unfold” value is below -1 kcal/mol.
Consider “SAGMDIYTETVVPLRVETDEEEIEEIIEKAKEEAEKKGYKPVEIPVETEPSPEGKTLVTIPVKLLKKAPSAG [r14_109_JUSTAS]”, for which the “folding stability dG unfold” value is below -1 kcal/mol.
On to “SAGMDKPVATFTRQKTPDGTEVLHVTVTTTAAGTGTTDPSTFTFPAGSDPAVVAAKVRAAGVAAVAFEPSAG [r5_37_JUSTAS]”, for which the “folding stability dG unfold” value is below -1 kcal/mol.
Regarding “SAGMIVKTVTVSPEVPPEEVAERLKRENPWIKEVKPEKVTSVTVPNPGKTLLTVTITIELDDVPEEVLKSAG [r5_326_JUSTAS]”, the “folding stability dG unfold” value is below -1 kcal/mol.
Regarding “SAGMKITFPDGFKEIEVYEDPNYPYIEIPLPGGSIRYDLKDGPIEIEPPGDNRPIRFPIPPGDTITLPSAGG [r19_138_TrROS]”, the “folding stability dG unfold” value was below -1 kcal/mol.
Still for that read-out and setting: for “SAGMPESEVIPLPDGSVVEVRRWPDSELRFVFPPGGPATVERHDTRTGTVETTPVSAADPEAAAAAVLASAG [r5_674_JUSTAS]” the value was below -1 kcal/mol.
As for “SAGMPPVRVVQAPSTVYTDPSPPTLTVESVFTGEGRLSTTSSTVPAPPELADLPAGAAVSRSFTVTVLPSAG [r5_714_JUSTAS]”, the “folding stability dG unfold” value is below -1 kcal/mol.
As for “SAGMPRLVTVEMVVLRVVPVYDPEGKPVREEPREERRTRTAPLAEAQAEIDALPPDEEVTEILRVEPESAGG [r19_114_JUSTAS]”, the “folding stability dG unfold” value was below -1 kcal/mol.
Turning to “SAGMTPEELEAGRPVERTIPLEIQHPEGNPIATYNITGTLTMEELKKLKEEIREEAKKKGIPPNLNTSLSAG [r5_606_JUSTAS]”, the “folding stability dG unfold” value was below -1 kcal/mol.
Regarding “SAGMVKIKIYVENPETGEEKELEIVKEFESEEEAEKEAEKIAKELEKAGYKVKKIEIEVIPLPPLPENPSAG [r5_660_TrMRF]”, the “folding stability dG unfold” value is above 6 kcal/mol.
For “SAGPKIEIEPLDWERDPGNGHMVIPVEISVKVPREENGRPPEQAEEKKESLVREFAREWAPKHGMPIHVSAG [r5_333_TrROS]”, the “folding stability dG unfold” value is below -1 kcal/mol.
As for “SAGPLKPGKTIEVPMEFTSPSDIVDELEKLPGIKDIEPTGIEPEPNPDGPPRIRVPFTFKIPKDGEPLSAGG [r19_221_TrROS]”, the “folding stability dG unfold” value was below -1 kcal/mol.
The same measure, in the same setting: for “SAGPNFQIKKVEHKGGKIEIPIRLPNGRPFTARIKVEKRPDPDGNDRPRTKIEISEDALKEYIPPDLIKSAG [r5_462_TrROS]” the value was below -1 kcal/mol; for “SAGPNPGEPLTVVTETSTEKVPTSSGRAVPVTTSTASNGTVIEKFPDGKVLVFEPGKGPENKTVLPEVSAGG [r19_199_JUSTAS]”, below -1 kcal/mol.
In the case of “SAGSEIYEAAKAGKKATVPVETTLTEVTEESVTPLGGPTLKAREVARTTFNAKLTKFDPKTGKITTDLPSAG [r5_5_JUSTAS]”, the “folding stability dG unfold” value is below -1 kcal/mol.
For “SAGSVTATITLPSGETVTVDVAPDEERILTTPEGRLLRLTDVRPGAVAFTEGENFVPDEDGNLVPLSLLSAG [r5_417_JUSTAS]”, the “folding stability dG unfold” value is below -1 kcal/mol.
For “SAGVPVDLHHDPKGVELATSTSYTPSGEPVGSSSSTHTVPGTGTPVSVYSPVYDDGAGLITRTYLAKLSAGG [r19_185_JUSTAS]”, the “folding stability dG unfold” value is below -1 kcal/mol.
Turning to “SAGWKIKIYPPNGQPQEIPIEDAKEIAEELAEQGNVQITPDGDIYIPFPMKDPEDGKPHQMYIQIERDKSAG [r5_243_TrROS]”, the “folding stability dG unfold” value was below -1 kcal/mol.
Still for that read-out and setting: for “SAKITITLPNGKKIEIELPEGYEIVEVTFDKETGVITIKVKNKETGKEYKITLTFNEDGSLTISIEEVDSAG [r14_311_TrROS_Hall]” the value was above 6 kcal/mol.
As for “SAMDAKELAEEIADEFAPKFPNIKPKKVTVEPTGDHYEGNIEWEMPNGRPMRVEVTVEKDGNIEDIEFHSAG [r14_719_TrROS]”, the “folding stability dG unfold” value was below -1 kcal/mol.
Same read-out and setting: for “SAMPLSELEFVEERVFPDPPVRISVYRLPSPGVWVVPVLEPGTGRPRLVELEAADGVLDEEEVRAAVLESAG [r14_948_JUSTAS]” the value was below -1 kcal/mol; for “SAMSPELEELLAQLKAAAEATTDVSVFATDAAGNLRSIGPVTVTGPATSLAELRPELAARPVARVELVGSAG [r14_318_JUSTAS]”, below -1 kcal/mol.
In the case of “SAPEVSVEEEEEEITDPVTGEKTTVYKITTKITLPDPNSSKKVTLTKPVIVEKTKSGTKVTEKPVFLLLSAG [r14_339_JUSTAS]”, the “folding stability dG unfold” value is below -1 kcal/mol.
Consider “SASSTLTFTLPRYTVNKVYDKEGKPVPVEITPVPTLEVTATTLPDGTVVVTIGDETRTYPPGVSPEELLSAG [r14_909_JUSTAS]”, for which the “folding stability dG unfold” value is below -1 kcal/mol.
With “SASVVDLETDGSMSVEEVVERFKKENPNVKEVKVTTEALPDEPKYRITLTITEDKGKTEENLKKTKELKSAG [r14_645_JUSTAS]”, the “folding stability dG unfold” value is below -1 kcal/mol.
For the sequence “SATTTTETLPDGGVLTTTTLPDGSPATGLIDPANGAPFTATHPNGLRTVWSQSPSGKVTTLSTTNVPPSSAG [r14_877_JUSTAS]”, the “folding stability dG unfold” value is below -1 kcal/mol.
Same read-out and setting: for “SDEVSRPVDVRYYITLTEPPTSRPRRGPTDELEVESERPVTVTEMPAGQEEAVRAELEPRGVAVSVTPVVSA [r9_1209_JUSTAS]” the value was below -1 kcal/mol; for “SFKLPEGEEREFRLPDVPIEIEVDDGPGMIKINIYPPENPGKPVFEHEVPPGEIKPIEIPPELRDAMKKQSA [r9_1051_TrROS]”, below -1 kcal/mol.
Take “SIEITFRHDNYRVPVKIDPDDPKIKIEVYPDPENGEMQPLTEEDMENFAQEIADELREQRKQQRKEGKPPSA [r9_368_TrROS]”: the “folding stability dG unfold” value was below -1 kcal/mol.
Turning to “SKSRPIEVEFRMPYPNGGPMRMRATVLINPDNGKIGIPMRMETPGKEREYPLPPSMMNNLAKTVLDKLGLSA [r9_1136_TrROS]”, the “folding stability dG unfold” value is -0.789 ± 0.81 kcal/mol.
With “SMTVITAEPNLPPEKKAAVEAVRERVKANPDKPMDADEIKEFIKEEFGDPNFTILKVTIIPKAPPVVALSSA [r9_620_JUSTAS]”, the “folding stability dG unfold” value was below -1 kcal/mol.
Consider “SNMPIFVRIEHNDGKEVEIPIKGSREQLKDNIQEEIQEYAQENGHKPRSIKVEVYDFGNNQEQTRTIPVKSA [r9_1193_TrROS]”, for which the “folding stability dG unfold” value is below -1 kcal/mol.
Consider “SNTIMIMANVPPGPVRIKIEPKNGRRYEMPIPPGEPVMFHIPIPPGLPPGNKWKIEVENPDNGKEQEKDFSA [r9_275_TrROS]”, for which the “folding stability dG unfold” value is below -1 kcal/mol.
As to “SPNVRPYNFKIRDPNKEIEVPVWQPPDGPPMVNIKFKDPGKEVEIPFPMDDPEELLEDFAPDGYKIELTWSA [r9_384_TrROS]”, the “folding stability dG unfold” value is below -1 kcal/mol.
In the case of “SPTLPFPFPDGHPYMIHLNPEKNEIHIHNPESGRPYRIKVPGGKERRIPAGADSLDELKDLPPLKIEPMPSA [r9_205_TrROS]”, the “folding stability dG unfold” value is below -1 kcal/mol.
“SSAEEVARARFEAAGWDWRPLARDPVKRTVRFEVRPPDRPPRLYEVVVDPSRDTVNLEEDPATGRVVVPGSA [r9_1119_JUSTAS]”: the “folding stability dG unfold” value is below -1 kcal/mol.
As to “SSDDKEEQKKRQKAQAKPKPKMEPVWVPIEVRDPDNGRPFEIPVRMYRTPNGKIEPLPEEELKDWAKDLFSA [r9_1056_TrROS]”, the “folding stability dG unfold” value was below -1 kcal/mol.
On the same count and under the same terms, for “SSVKIEEKPLPDGTILVTITTPPENPEEVAEKVKEEVKAPVTVTSVEEVELEEGEKPLKVVKITIEVDKASA [r9_431_JUSTAS]” the value was below -1 kcal/mol.
“SSVNWKVLETKEEPETVVTLLENPENPELIVEVPVKRFEDPDSERREVTKTVWLPATGETLETEPAVIPLSA [r9_18_JUSTAS]”: the “folding stability dG unfold” value was below -1 kcal/mol.
For “STLENIEYIKLPKNKTLPLPGGETISPDEEIAIDLDKKKYINKEELEELKKKIEEELEKKKPKENPKNLISA [r9_517_JUSTAS]”, the “folding stability dG unfold” value was below -1 kcal/mol.
With “SYPRDPSGKITAKITITRDPDGIYRAEIDVVDKDNKPLARASAPYENPYPGVARLKEEAEALAEELEKKKSA [r9_739_TrMRF]”, the “folding stability dG unfold” value was below -1 kcal/mol.

(Values after the supplement of paper PMC12764529.)
